Values of other authors as cited in article PMC5310643.

Target: κI light chain variable domain (germline) VL (Homo sapiens) (UniProt P01594)
Assay: NMR diffusion

Which Kd does the source give for “κI light chain variable domain (germline) VL (from UniProt P01594)” here?
Its Kd is 217 µM.
